B1: Antibody 88 (antibody, V domains shown)
VH: QSVEESGGRLVTPGTPLTLTCTVSGFPLSSYVMSWVRQAPGTGLEYIGIVGIGGSAYYASWAKGRFTISRTSTTVDLKMTSLTPEDTATYFCARGAGGNFYSPLDLWGQGTLVTVSS
VL: DIVMTQTASPLSGAVGGTVTIKCQASQSISNELAWYQQKPGQRPKLLIYLASTLASGVPSRFKGSGSGTDFTLTISDLECADAATYYCQSYSDTSSISYGYGFGGGTEVVVK
notes: rabbit IgG in B-cell supernatant
B2: Antibody 9 (antibody, V domains shown)
VH: QEQLEESGEGLVKPGTPLTLTCTASGFSLSSGDMSWVRQAPGKGLEWIGTIGVDGSTDYANWAEGRFTISRTSTTVDLKMTSPTTEDTATYFCARGLFDDYTFNLWGQGTLVTVSS
VL: AYDMTQTPASVEVAVGGTVTIKCQASQNIYTYLSWYQQKPGQPPKLLIYKTSTLASGVPSRFSGSGSGTEYTLTVSGVQCDDAATYYCQQGYTTSSNVATPFGGGTEVVVK
notes: as for B1
B3: Antibody 34 (antibody, V domains shown)
VH: QEQLVESGGGLVQPEGSLTLTCKASGFSFSSGYYMCWVRQAPGKGLEWIACIYADSSESTYYASWAKGRFTISKTSSTTVTLQVTSLTAADTATYFCARWGTVAGYSTFNLWGPGTLVTVSS
VL: DVVMTQTPASVSEPVGGTVTIKCQASQSISTALAWYQQKPGQPPKLLIYFTSTLASGVSSRFKGSGSGAEFTLTISDLECADAATYYCQGYYYVTNFPFGGGTEVVVK
notes: as for B1
B4: Antibody 72 (antibody, V domains shown)
VH: QSLEESGGRLVTPGTLLTLTCTASGIDLSGHAMAWVRQAPGKGLEWIGIIYDNGITNYPTWAKGRFTISKTSTTVELKFTSPTTEDTATYFCARDTGNGALRLTLWGPGTLVTVSS
VL: DIVMTQTPSPVSAAVGGTVTIKCQASQSIGSWLSWYQQKPGQRPKLLIYGASTLESGVPSRFKGSGSGTEFTLTISDLECADAATYYCHCTYGSVSGNAFGGGTEVVVK
notes: as for B1
B5: Antibody 6 (antibody, V domains shown)
VH: QSVEESGGRLVTPGTPLTLTCTVSGFSLSSYTMGWVRQAPGKGLEYIGIINTGGYTYYASWAKGRFTISRTSTTVDLSMTSLTTEDTATYFCARVYPGSSCDLWGQGTLVTVSS
VL: DVVMTQTPASVSEPVGGTVTIKCQASQSISSSYLSWYQQKPGQPPKLLIYRASTLESGVPSRFKGSGSGTEFTLTISDLECADAATYYCQCTDYAGSYVGGAFGGGTEVVVK
notes: as for B1
B6: Antibody 79 (antibody, V domains shown)
VH: QSVEESGGRLVTPGTPLTLTCTVSGFSLSSNAMSWVRQAPGKGLEWIGIINIYGSTNYASWAKGRFTISKTSSTTVDLKITSPTTEDTATYFCARDYGGVSATRLDLWGQGTLVTVSS
VL: DVVMTQTPASVEAAVGGTVTIKCQASQSIGSYLSWYQQKPGQPPKLLIYDASNLEDGVPSRFKGSGSGTEYTLTISDLECADAVTYYCQCTYGYGISSSYGNAFGGGTEVVVK
notes: as for B1
B7: Antibody 74 (antibody, V domains shown)
VH: QSVEESGGRLVTPGTPLTLTCTVSGFSLSSGYMNWVRQAPGKGLEWIGRIHTLSGSIWYASWVKGRFTISKTSTTVDLKMTSLTTKDTATYFCARGNAGGSIEYGMDLWGPGTLVTVSA
VL: AYDMTQTPASVEAAVGGTVTIKCQASESITNYLNWYQQKPGQPPKLLIYSASTLASGVPSRFKGSGSGTQFTLTISGVECADAGTYYCQQGYSLINVGDIFGGGTEVVVR
notes: as for B1
B8: Antibody 78 (antibody, V domains shown)
VH: QSVEESGGRLVTPGTPLTLTCTVSGIDLSSYWMIWVRQAPGEGLEYIGFISNGGGAYYANWTKGRFTISRTSTTVDLKMTSLTTEDTATYFCARAYTTVTIGGFDLWGPGTLVTVSS
VL: AYDMTQTPASVEVAVGGTVTINCQASQNIYNGLAWYQQKPGQPPKLLIYLASTLASGVPSRFKGSGSGTEFTLTISDLECADAATYYCQQGFSVNNVGNVFGGGTEMVVK
notes: as for B1
B9: Antibody 18 (antibody, V domains shown)
VH: QSVEESGGRLVTPGTPLTLTCTVSGFSLSTYWMSWVRQAPGKGLEYIGFINTGGNAYYASWAKGRFTISKTSTSVDLKITSPTTEDTATYFCAGAYVGDVGDGYALTLWGQGTLVTVSS
VL: DVVMTQTPASVSEPVGGTVTIKCQASQSIGNKLAWYQQVPGQPPKLLIYSASPLASGVSSRFKGSRSGTEYTLTISDLECADAATYYCQCTYYGSSGNAFGGGTEVVVK
notes: as for B1
B10: Antibody 45 (antibody, V domains shown)
VH: QSVEESGGRLVTPGTPLTLTCTVSGFSLSSYAMTWVRQAPGKGLEWIGIIDHSRATYYANWAKGRFTISKTSSTTVDLKVTSLTTEDTATYFCARFFNPGGSGYLRLWGQGTLVTVSS
VL: DVVMTQTPASVSEPVGGTVTIKCQASQIISNWLAWYQQKPGQPPKLLIYGASILASGVPSRFKASRSGTDYTLTIGDLECADAATYYCQCPDYSDTSLGSFGGGTEVVVR
notes: as for B1
B11: Antibody 1 (antibody, V domains shown)
VH: QSLEESGGRLVTPGTPLTLTCTASGFSLSSYAMIWVRQAPGEGLEYIGIIITGGSAYYANWAKGRFTISRTSTTVDLKMTSLTTEDTATYFCARGYSGSSGDLWGQGTLVTVSS
VL: DVVMTQTPASVSEPVGGTVTIKCQASQSISSWLSWYQQKPGQPPKLLIYGASNLASGVSSRFKGSRSGTEYTLTISDLECADAATYYCQCTDYTSKYVGAFGGGTEVLVR
notes: as for B1
B12: Antibody 21 (antibody, V domains shown)
VH: QEHLEESGGGLVKPPGSLTLTCTASGFSFSSTYYICWVRQAPGKGLEWIGCIYAGSGTTYYASWAKGRFTISKTSSTTVTLQMASLTAADTATYFCARSSDSWTYGMDLWGPGTLVTVSS
VL: DIVMTQTPASVSEPVGGTVTIKCQASQSISSYLAWYQQKPGQPPKRLIYKASTLASGVPSRFKGSGSGTDFTLTISDLECADAATYYCQCTYGNTGSNFFYGFGGGTEVVVK
notes: as for B1
B13: Antibody 15 (antibody, V domains shown)
VH: QSVEESGGRLVTPGTPLTLTCTVSGFSLNSHAMSWVRQAPGKGLEWIGIISSSGSAWYATWVKGRFTISKTSTTVDLKMTSLTTEDTATYFCARDSAMVPSNFNLWGQGTLVTVSS
VL: AIEMTQSPPSLSASVGETVRIRCLASEFLFNAVSWYQQKPGKPPTLLISGASNLESGVPPRFSGSGSGTDYTLTIGGVQAEDVATYYCLGDFSGGADLTFGAGTKVEIK
notes: as for B1
B14: Antibody 20 (antibody, V domains shown)
VH: QSLEESGGGLVQPEGSLTLTCTASGLDASSNCWVCWVRQAPGKGLEWIACIYAIGSGVTYYASWVNGRFSISKTSSTTVTLQMTSLTVADTATYLCARVLNGVGYIDLWGPGTLVTVSS
VL: DIVMTQTPSSVEAAVGGTVTIKCQASQSVYNNNWLAWYQQIPGQPPKLLIYESSTLASGVPSRFKGSGSGTQFTLTISDVQCDDAAMYYCQTYYYSSSRTYAFGGGTEVVVK
notes: as for B1
B15: Antibody 32 (antibody, V domains shown)
VH: QSVEESGGRLVTPGTPLTLTCTVSGFSLSSYDMSWVRQAPGKGLEWIGFIDGDSNTYDATWAKGRFTISKTSTTVDLKITSPTTEDTATYFCTRGFNLWGQGTLVTVSS
VL: DVVMTQTPASVSEPVGGTVTIKCQASQSISSYLAWYQQKPGQPPKLLIYKASTLASGVSSRFKGSGSGTEFTLTISDLECADAATYYCQCSAGGRSGIGGFGGGTEVVVK
notes: as for B1
B16: Antibody 28 (antibody, V domains shown)
VH: QEQLEESGGDLVKPGASLTLTCKVSGFSLTSGYYMCWVRQAPGKGLEWLACIYTGSSGRTYYASWAKGRFTISKTSSTTVTLQMTSLTAADTATFFCARELYLSSVLWGPGTLVTVSS
VL: DVVMTQTPASVSEPVGGTVTIKCQASQSISSSYLSWYQQKPGQPPKLLIYRASTLESGVPSRFKGSGSGTEFTLTISDLECADAATYYCQCTDYAGSYVGGAFGGGTEVVVK
notes: as for B1
B17: Antibody 24 (antibody, V domains shown)
VH: QSVEESGGRLVTPGTPLTLTCTVSGFSLSSNAISWVRQAPGKGLEWIGFINIYGSTYYASWAKGRFTISRTSTTVDLKMTSLTTEDTATYFCARDRTGDSPTRLDLWGQGTLVTVSS
VL: DVVMTQTPASVEAAVGGTVTIKCQASQSISSYLSWYQQKPGQPPKLLIYDASTLASGVPSRFKGSGSGTQFTLTISDLECADAATYYCQCTYGYGASSAYGNAFGGGTEMVVK
notes: as for B1
B18: Antibody 52 (antibody, V domains shown)
VH: QSVEESGGRLVTPGTALTLTCTVSGFSLSSGDMSWVRQAPGKGLEWIGYIWSGVSTYYANWAKGRFTISKTSSTTVDLKMTSLTIEDTATYFCARVDFYSYVYSLWGPGTLVTVSS
VL: ALVMTQTPASVEAAVGGTVTIKCQASQSISSCLAWYQQKPGQPPKLLIYSASTLASGVPSRFKGSGSGTEYTLTISGVECADAATYYCQQHYTSNNIDNAFGGGTEVVVK
notes: as for B1
B19: Antibody 55 (antibody, V domains shown)
VH: QSLEESGGRLVTPGGSLTLTCTVSGSDISSYDMSWVRQAPGKGLEWIGYIWSGTTIYYASWPKGRFTISKTSSTTVDLKMTSLTTEDTATYFCAAINIYTYVYSLWGPGTLVTVSS
VL: AYDMTQTPASVEAAVGGTVTIKCQASESIYSSLAWYQQKSGQPPKLLIYLASTLASGVPSRFKGSGSGTDYTLTISGVECADAATYYCQQHYSGSNVDNAFGGGTEVVVK
notes: as for B1
B20: Antibody 53 (antibody, V domains shown)
VH: QSLEESGGRLVTPGGSLTLTCTVSGSDISTYDASWVRQAPGKGLEWIGYIWSGTKTYYASWAKGRFTISKTSSTTVDLKMTSLTTEDTATYFCATVNTYTYVYSLWGPGTLVTVSS
VL: AYDMTQTPASVEVAVGGTVTIKCQASQSISSSLAWYQQKSGQPPKLLIYLASTLASGVPSRFKGSGSGTEYTLTISGVECADAATYYCQQHYTALNVDNAFGGGTEVVVK
notes: as for B1

Target: T1, recombinant Fc chimeric conjugate of human HER3 (human, UniProt P21860 20-643)
T1 construct: extracellular domain; Coated on the ELISA plate
Test: ELISA, coated antigen
Experimental: (§1) Microtiter plates were coated with a) c-Met, IGF-1R, EGFR, HER2, and/or HER3 protein or b) EGFR, HER2, and/or HER3 (recombinant Fc chimeric conjugates of human c-Met, IGF-1R, EGFR, HER2, HER3 or IL12 Rβ1). After a blocking process, specific antibodies from B-cell supernatants bind to the targets and are then detected by a POD-labeled anti-rabbit IgG antibody. The IL12R binding was used as a counter-screen.
(§2) 12.5 μL 0.5 μg/mL protein in PBS was transferred to a microtiter plate incubated and washed 3× with Wash Buffer. 90 μL Block Buffer was added to each well, incubated and washed. 12.5 μL Standard Antibody (Anti-EGF-Receptor; HER2 Rabbit anti-Human Monoclonal (extracellular domain) (SP3) Antibody; HER3 (N-terminal) antibody; start concentration 2 μg/ml; IL-12Rbeta1 antibody start concentration 500 ng/ml) in 1:2 dilutions or sample diluted in ELISA buffer was added, incubated and washed. 12.5 μl 1:5000 POD-Antibody (Anti-rabbit IgG, peroxidase-linked species-specific Fab2 fragment (from donkey) (ECL); assay dilution: 1:5000) in Elisa Buffer was added, incubated and washed. 15 μl TMB was added and 15 μl HCl was added after sufficient development. Absorbance (Optical Density O.D.) was read at 450 nm/620 nm.

T1 sequence (P21860 20-643, change not shown): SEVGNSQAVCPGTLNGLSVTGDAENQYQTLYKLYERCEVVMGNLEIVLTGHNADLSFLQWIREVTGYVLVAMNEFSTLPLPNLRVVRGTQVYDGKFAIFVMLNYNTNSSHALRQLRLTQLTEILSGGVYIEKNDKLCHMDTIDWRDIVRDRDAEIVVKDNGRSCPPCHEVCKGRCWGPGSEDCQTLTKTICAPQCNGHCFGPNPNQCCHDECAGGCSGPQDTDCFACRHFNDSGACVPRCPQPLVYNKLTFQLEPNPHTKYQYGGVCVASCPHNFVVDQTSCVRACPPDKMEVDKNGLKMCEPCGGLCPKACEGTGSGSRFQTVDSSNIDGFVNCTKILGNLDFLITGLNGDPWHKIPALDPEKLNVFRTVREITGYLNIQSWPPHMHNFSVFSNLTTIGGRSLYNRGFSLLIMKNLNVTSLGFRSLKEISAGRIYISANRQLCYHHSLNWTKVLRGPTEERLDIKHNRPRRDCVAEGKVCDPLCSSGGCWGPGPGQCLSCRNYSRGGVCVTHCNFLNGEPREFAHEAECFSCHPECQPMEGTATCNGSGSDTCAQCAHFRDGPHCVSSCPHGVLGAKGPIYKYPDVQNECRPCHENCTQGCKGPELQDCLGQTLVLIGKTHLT

Binding result, no binding (tested: OD 0.1 or lower):
B1
B2
B3
B4
B5
B6
B7
B8
B9
B10
B11
B12
B13
B14

Target: T2, recombinant Fc chimeric conjugate of human HER2 (human, UniProt P04626 23-652)
T2 construct: extracellular domain; Coated on the ELISA plate
Test: ELISA, coated antigen
Experimental: as §1, §2

Binding result, no binding (tested: OD 0.1 or lower):
B15
B16
B17
B18
B19
B20

— US20150259430A1 (MAB DISCOVERY, published 2015)
